Measured values from the supplement of paper PMC9732359.
± gives the uncertainty stated by the source.

Assay: protein stability index of a GFP-peptide fusion (yeast GPS) (PSI 1-4); higher = more stable; sorted into four equal gates, so the index is relative within each strain
In short: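 Mid-log yeast cultures in leucine-free medium, carrying a pooled plasmid library, were sorted into four equal gates by their GFP/Cherry fluorescence ratio. Each plasmid expressed Cherry along with GFP fused upstream of a tiled 17-residue yeast protein peptide. Plasmids recovered from each gate were PCR-amplified and Illumina-sequenced, with reads assigned to strains by barcodes. The protein stability index was obtained by summing each gate's read frequency weighted by its gate number.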

Sequence	protein stability index (doa10∆)	protein stability index (pdr5∆)	protein stability index (san1∆)	protein stability index (ubr1∆)
QLIDQFEWDISNSDNCP [SNF5]	3.02 ± 0.092	3.18 ± 0.12	3.21 ± 0.058	3.27 ± 0.065
EKFSPKSFISKLLGIGD [SRP54]	3.49 ± 0.14	3.31 ± 0.15	2.68 ± 0.2	3.21 ± 0.17
SQISPEKQTPNKKDKKK [RPN1]	2.95 ± 0.063	2.9 ± 0.1	3.09 ± 0.06	3.12 ± 0.069
QDRIQDVKLVLASNFDN [MED1]	2.56 ± 0.057	2.67 ± 0.06	1.88 ± 0.08	2.21 ± 0.036
PNFDWDLCSSVLSQFER [ROX3]	3.12 ± 0.079	2.8 ± 0.095	2.6 ± 0.08	2.59 ± 0.067
DEGMESIEMEEETDDED [RRI2]	–	–	3.26 ± 0.18	3.35 ± 0.14
DSFENYFNQLKPYYFSN [RPN12]	2.66 ± 0.083	2.95 ± 0.1	2.97 ± 0.058	3.02 ± 0.056
EKTMMTFGKPEEEDSIL [YCS4]	3.27 ± 0.15	3.37 ± 0.14	3.35 ± 0.063	3.27 ± 0.088
KDMKLLRYYKNIWLNNK [NUT1]	2.01 ± 0.065	1.65 ± 0.074	1.97 ± 0.15	1.28 ± 0.054
KKLLINKDASLALQRGA [DPB4]	2.62 ± 0.094	2.75 ± 0.12	2.44 ± 0.17	3.06 ± 0.092
TGRLFQVEYALEAIKQG [PRE5]	2.94 ± 0.11	2.5 ± 0.15	3.16 ± 0.17	2.26 ± 0.12
TRDEETTKLAFLVEYEG [SIR4]	3.02 ± 0.14	3.06 ± 0.095	–	2.96 ± 0.13
LYQIDYLGTKVELPYGA [PRE1]	1.72 ± 0.089	1.81 ± 0.079	1.62 ± 0.099	2.23 ± 0.073
EIYKQLNDRQEEISRLQ [YIL149C/MLP2]	3.42 ± 0.08	3.57 ± 0.078	3.6 ± 0.041	3.38 ± 0.07
SSPYAAMLAAQDVAAKC [RPS14B]	2.14 ± 0.055	1.42 ± 0.055	1.3 ± 0.082	1.73 ± 0.05
VVFTRLVQRCWQWGNDR [CSN12]	1.42 ± 0.092	1.4 ± 0.08	1.58 ± 0.14	1.52 ± 0.058
PQNEKPPAYALLGSCQT [RPC25]	2.83 ± 0.26	2.76 ± 0.17	–	2.45 ± 0.13
DSLSGAVIAAIMQEAGL [RPT3]	–	1.14 ± 0.18	–	–
ESQYPIVTEQPSAEIRE [SWP82]	2.56 ± 0.04	2.73 ± 0.042	2.57 ± 0.047	2.56 ± 0.039
ETAKMIENMTKEKVSNG [FAS2]	3.41 ± 0.3	3.28 ± 0.13	3.57 ± 0.091	3.02 ± 0.11
IDEDKLYPSFKPIYKDT [SSN2]	2.99 ± 0.095	3.04 ± 0.11	3 ± 0.053	3.17 ± 0.092
VKIGDIEKWTANLLPAR [RPS22A]	2.19 ± 0.076	2.65 ± 0.095	2.56 ± 0.076	3.17 ± 0.087

Sequence	protein stability index (doa10∆)	protein stability index (pdr5∆)	protein stability index (san1∆)	protein stability index (ubr1∆)
KKIGCYMFANLEFSIYH [CSN12]	2.07 ± 0.071	1.95 ± 0.064	2.98 ± 0.06	2.51 ± 0.052
ITLLPSSLKESSPDTMK [SNF12]	2.96 ± 0.19	–	–	2.27 ± 0.25
DKPLLKAGRAFHKYRLK [RPL2A]	2.96 ± 0.085	3.07 ± 0.058	2.16 ± 0.059	2.04 ± 0.061
ICEDPETAKKITFHPKI [SMC2]	2.84 ± 0.1	2.74 ± 0.084	2.16 ± 0.28	2.9 ± 0.077
KSKILRKVVFPFQLDVA [UBP6]	2.23 ± 0.09	2.39 ± 0.089	2.65 ± 0.11	2.44 ± 0.057
TDAHTPLARNYIKSMDL [RPR2]	2.67 ± 0.044	2.73 ± 0.044	2.68 ± 0.041	2.86 ± 0.032
SSVEMLLDVVKGTEASN [YDL116W/NUP84]	2.89 ± 0.071	3.1 ± 0.091	2.55 ± 0.052	2.9 ± 0.063
EIFIRCNNVLYIRELPN [SMX3]	–	1.75 ± 0.18	1.53 ± 0.12	1.48 ± 0.12
QTSVTTNFNEITNTDET [SWP82]	2.84 ± 0.061	3.09 ± 0.051	2.86 ± 0.042	3.14 ± 0.039
VVERHLEDGDVVLFNRQ [RPO31]	3.41 ± 0.079	3.32 ± 0.077	3.57 ± 0.069	3.38 ± 0.083
RTLEAITATLVGTVRCE [CSL4]	1.73 ± 0.12	1.91 ± 0.12	1.5 ± 0.14	2.47 ± 0.16
VMTISSLEQRTLNPDLF [RPC82]	–	3.1 ± 0.28	–	–
SSSPLAMSETLSKVSLL [PRE8]	2.53 ± 0.071	2.83 ± 0.084	2.67 ± 0.1	2.32 ± 0.059
HTLDIINVLTDQNPIQV [RPS5]	1.88 ± 0.066	2.33 ± 0.077	2.12 ± 0.096	1.86 ± 0.055
RLKQVFNRALDQSISKL [NNF1]	2.05 ± 0.056	2.11 ± 0.039	1.93 ± 0.043	2.16 ± 0.036
IGISIVGRFSTISSADF [ECM29]	2.81 ± 0.24	2.54 ± 0.092	3.12 ± 0.3	2.26 ± 0.19
IVEQDKSMELFYDIRSL [YJL039C/NUP192]	2.34 ± 0.13	2.93 ± 0.11	2.66 ± 0.086	3.16 ± 0.082
SSDELKVIEEQLKHTKL [SMC4]	3.27 ± 0.061	3.3 ± 0.077	3.04 ± 0.067	3.25 ± 0.058
LMEASDAFRVHICGICG [RPB2]	2.08 ± 0.062	1.83 ± 0.098	2.23 ± 0.11	2.5 ± 0.072
TCSSDQHIKVFKLDKDT [YGL100W/SEH1]	3 ± 0.098	3.07 ± 0.087	3.46 ± 0.087	3.43 ± 0.097
PNINTWQQVTALAQQKL [GAL11]	2.2 ± 0.058	2.23 ± 0.064	2.11 ± 0.085	2.08 ± 0.054
QIAFDLVSSASQQLLEI [RPN2]	2.22 ± 0.068	2.17 ± 0.063	1.66 ± 0.11	1.69 ± 0.072
